Measurements taken from US20250049972A1, “METHOD OF DETECTING PROSTATE CANCER IN A HUMAN SUBJECT USING A Cu 64 PSMA I&T INJECTION” (Curium US LLC, priority 2023, published 2025).

Assays:
[1] = parameters: species or system human; conditions: in vivo
Protocol: Safety was assessed in all patients following administration of copper Cu-64 PSMA I&T injection through collection of AE reporting, laboratory assessments, vital signs, and ECG. The Phase 2 portion assessed safety after copper Cu-64 PSMA I&T injection through collection of AEs 24 hours post-injection, lab assessments, vital signs, and ECGs.

[2] = parameters: species or system human; conditions: in vivo; remark: listed apart in the source
Protocol: Radiation dosimetry estimates for normal organs were determined for copper Cu-64 PSMA I&T based on biodistribution collected from the 12 patients enrolled in the trial. Whole-body PET/CT images acquired at 1 hour (±15 minutes), 4 hours (±30 minutes), and 24 hours (±2.0 hours) post injection were used together with blood samples collected prior to and 1, 2, 4, and 24 hours post injection and total voided urine samples collected for 0 to 1-hour and 1 to 4-hour intervals post injection.
This analysis was performed with the objective of estimation of radiation dosimetry of Cu-64 PSMA I&T based on bio-distribution determined using PET image data collected in twelve human subjects. […] The maximum deviation was 13%. Activities were normalized to 100% based on the first imaging time to prevent over or under estimation of absorbed dose.
Third, calculating Source Organ Time-Activity Bio-Kinetic Modeling using bio-distribution data for the listed organs utilizing the following Equation Three: […]
The bio-distribution data for the listed organs and remainder tissues in the study may be determined using the image quantification methodology described above. Organ and tissue data may be decay corrected to fit in a least squares sense using non-linear regression with sums of exponentials of the form shown in Equation Three.

[3] = Phase 1 independent reader assessment of image quality (lesion evaluation and general) of 5, 7, 9 mCi scans; format: in vivo, human; conditions: for Lesion evaluation Image Quality Score (Mean [SD]) / Number of Lesions visible: 4-hour scans
Protocol: The Phase 1 portion of the study included a total of 12 patients with biochemical, recurrent PC after prostatectomy or radiation therapy. Patients were randomized into 3 groups of 4 patients. Patients in a given group received a single intravenous dose of 5, 7, or 9 mCi (±10%) of copper Cu-64 PSMA I&T. Whole-body PET/CT images were acquired at 1 hour (±15 minutes), 4 hours (±30 minutes), and 24 hours (±2.0 hours) post injection.
The 1-hour and 4-hour PET/CT images were evaluated independently by 3 readers blinded to all patient information, dose administration, and times of acquisition to assess the quality of the images (24 PET/CT image sets total). In addition, readers performed all assessments in one sitting with images scrambled such that the 1- and 4-hour imaging from the same patient was […]. The imaging protocol, scanner qualification, and imaging time/bed position were identical at 1, 4 and 24 hours and kept constant regardless of dose. The assessments were used together with dose reduction modeling to determine an acceptable dose to be administered for the Phase 2 portion of the study defined as the lowest copper Cu-64 PSMA I&T dose that yielded the most clinically relevant diagnostic image quality based on expert consensus review of all measurements and overall image quality.

O=C(O)CC[C@H](NC(=O)N[C@@H](CCCCNC(=O)CCCCCCC(=O)NCCCC[C@@H](NC(=O)[C@@H](Cc1ccccc1)NC(=O)[C@@H](Cc1ccc(O)c(I)c1)NC(=O)CC[C@H](C(=O)O)N1CCN(CC(=O)O)CCN(CC(=O)O)CCN(CC(=O)O)CC1)C(=O)O)C(=O)O)C(=O)O [Cu-64 PSMA I&T, 64 Cu-(3S, 7S, 26R, 29R, 32R, 37R)-29-benzyl-32(4-hydroxy-3-iodobenzyl)-5, 13, 20, 28, 31, 34-hexaoxo-37-(4,7,10-tris(carboxymethyl)-1,4,7, 10-tetraazacyclododecan-1-yl)-4,6, 12, 21, 27, 30, 33-heptaazaheptatriacontane-1,3,7, 26, 37-pentacarboxylic acid, metal not drawn]
patients who experienced at least 1 AE [1]: 2 | relationship of the adverse events to study product [1]: not related | serious adverse events attributed to the injection [1]: No serious adverse events | seriousness of the adverse events [1]: not serious | severity of the adverse events [1]: mild | Normalized Number of Disintegrations, Mean, Remainder ([2]; human): 6.9 h | Dose Estimate, Mean, Adrenals [2]: 0.045 mGy/MBq | Dose Estimate, Mean, Brain [2]: 0.011 mGy/MBq | Dose Estimate, Mean, Esophagus [2]: 0.020 mGy/MBq | Dose Estimate, Mean, Eyes [2]: 0.010 mGy/MBq | Dose Estimate, Mean, Gallbladder Wall [2]: 0.051 mGy/MBq | Dose Estimate, Mean, Heart Wall [2]: 0.055 mGy/MBq | Dose Estimate, Mean, Kidneys [2]: 0.19 mGy/MBq | Dose Estimate, Mean, Lacrimal Glands [2]: 0.16 mGy/MBq | Dose Estimate, Mean, Left colon [2]: 0.25 mGy/MBq | Dose Estimate, Mean, Liver [2]: 0.25 mGy/MBq | Dose Estimate, Mean, Lungs [2]: 0.018 mGy/MBq | Dose Estimate, Mean, Osteogenic Cells [2]: 0.018 mGy/MBq | Dose Estimate, Mean, Pancreas [2]: 0.054 mGy/MBq | Dose Estimate, Mean, Pituitary [2]: 0.037 mGy/MBq | Dose Estimate, Mean, Prostate [2]: 0.027 mGy/MBq | Dose Estimate, Mean, Rectum [2]: 0.15 mGy/MBq | Dose Estimate, Mean, Red Marrow [2]: 0.023 mGy/MBq | Dose Estimate, Mean, Right colon [2]: 0.22 mGy/MBq | Dose Estimate, Mean, Salivary Glands [2]: 0.12 mGy/MBq | Dose Estimate, Mean, Small Intestine [2]: 0.067 mGy/MBq | Dose Estimate, Mean, Spleen [2]: 0.048 mGy/MBq | Dose Estimate, Mean, Stomach Wall [2]: 0.063 mGy/MBq | Dose Estimate, Mean, Testes [2]: 0.035 mGy/MBq | Dose Estimate, Mean, Thymus [2]: 0.015 mGy/MBq | Dose Estimate, Mean, Thyroid [2]: 0.015 mGy/MBq | Dose Estimate, Mean, Total Body [2]: 0.022 mGy/MBq | Dose Estimate, Mean, Urinary Bladder Wall [2]: 0.074 mGy/MBq | Normalized Number of Disintegrations, Mean, Heart wall [2]: 0.17 h | Normalized Number of Disintegrations, Mean, Kidneys [2]: 0.69 h | Normalized Number of Disintegrations, Mean, Lacrimal Glands [2]: 0.0033 h | Normalized Number of Disintegrations, Mean, Liver [2]: 5.0 h | Normalized Number of Disintegrations, Mean, Pancreas [2]: 0.058 h | Normalized Number of Disintegrations, Mean, Pituitary [2]: 0.00033 h | Normalized Number of Disintegrations, Mean, Prostate [2]: 0.0047 h | Normalized Number of Disintegrations, Mean, Red Marrow [2]: 0.28 h | Normalized Number of Disintegrations, Mean, Salivary glands [2]: 0.12 h | Normalized Number of Disintegrations, Mean, Spleen [2]: 0.096 h | Normalized Number of Disintegrations, Mean, Stomach Wall [2]: 0.083 h | Normalized Number of Disintegrations, Mean, Testes [2]: 0.015 h | Normalized Number of Disintegrations, Mean, Thyroid [2]: 0.0035 h | Normalized Number of Disintegrations, Mean, Whole Body [2]: 15 h | Average general image quality across timepoints ([3]; 5 mCi (n = 4)): 1.63 (0.58) | Average general image quality across timepoints ([3]; 7 mCi (n = 4)): 1.58 (0.58) | Average general image quality across timepoints ([3]; 9 mCi): 1.71 (0.46) | Lesion evaluation Image Quality Score (Mean [SD]) ([3]; Reader 1, 5 mCi): 2.00 (0.00) | Number of Lesions visible ([3]; Reader 1, 5 mCi): 19 | Lesion evaluation Image Quality Score (Mean [SD]) ([3]; Reader 1, 7 mCi): 2.00 (0.00) | Number of Lesions visible ([3]; Reader 1, 7 mCi): 15 | Lesion evaluation Image Quality Score (Mean [SD]) ([3]; Reader 1, 9 mCi): 2.00 (0.00) | Number of Lesions visible ([3]; Reader 1, 9 mCi): 12 | General Image Quality score (Mean [SD]) ([3]; Reader 1, 1 hour, 5 mCi (n = 4)): 2.00 (0.00) | General Image Quality score (Mean [SD]) ([3]; Reader 1, 1 hour, 7 mCi (n = 4)): 2.00 (0.00) | General Image Quality score (Mean [SD]) ([3]; Reader 1, 1 hour, 9 mCi): 1.75 (0.50) | General Image Quality score (Mean [SD]) ([3]; Reader 1, 4 hours, 5 mCi (n = 4)): 1.75 (0.50) | General Image Quality score (Mean [SD]) ([3]; Reader 1, 4 hours, 7 mCi (n = 4)): 2.00 (0.00) | General Image Quality score (Mean [SD]) ([3]; Reader 1, 4 hours, 9 mCi): 1.75 (0.50) | Lesion evaluation Image Quality Score (Mean [SD]) ([3]; Reader 2, 5 mCi): 2.00 (0.00) | Number of Lesions visible ([3]; Reader 2, 5 mCi): 17 | Lesion evaluation Image Quality Score (Mean [SD]) ([3]; Reader 2, 7 mCi): 1.77 (0.44) | Number of Lesions visible ([3]; Reader 2, 7 mCi): 13 | Lesion evaluation Image Quality Score (Mean [SD]) ([3]; Reader 2, 9 mCi): 2.00 (0.00) | Number of Lesions visible ([3]; Reader 2, 9 mCi): 13 | General Image Quality score (Mean [SD]) ([3]; Reader 2, 1 hour, 5 mCi (n = 4)): 2.00 (0.00) | General Image Quality score (Mean [SD]) ([3]; Reader 2, 1 hour, 7 mCi (n = 4)): 1.00 (0.82) | General Image Quality score (Mean [SD]) ([3]; Reader 2, 1 hour, 9 mCi): 1.75 (0.50) | General Image Quality score (Mean [SD]) ([3]; Reader 2, 4 hours, 5 mCi (n = 4)): 2.00 (0.00) | General Image Quality score (Mean [SD]) ([3]; Reader 2, 4 hours, 7 mCi (n = 4)): 1.50 (0.58) | General Image Quality score (Mean [SD]) ([3]; Reader 2, 4 hours, 9 mCi): 2.00 (0.00) | Number of Lesions visible ([3]; Reader 3, 5 mCi): 19 | Number of Lesions visible ([3]; Reader 3, 7 mCi): 12 | Lesion evaluation Image Quality Score (Mean [SD]) ([3]; Reader 3, 9 mCi): 1.85 (0.38) | Number of Lesions visible ([3]; Reader 3, 9 mCi): 13 | General Image Quality score (Mean [SD]) ([3]; Reader 3, 1 hour, 5 mCi (n = 4)): 1.00 (0.00) | General Image Quality score (Mean [SD]) ([3]; Reader 3, 1 hour, 7 mCi (n = 4)): 1.25 (0.50) | General Image Quality score (Mean [SD]) ([3]; Reader 3, 1 hour, 9 mCi): 1.50 (0.58) | General Image Quality score (Mean [SD]) ([3]; Reader 3, 4 hours, 5 mCi (n = 4)): 1.00 (0.82) | General Image Quality score (Mean [SD]) ([3]; Reader 3, 4 hours, 7 mCi (n = 4)): 1.75 (0.50) | General Image Quality score (Mean [SD]) ([3]; Reader 3, 4 hours, 9 mCi): 1.50 (0.58) | QIQS (general image quality), lowest score ([3]; at 4 hours, 5, 7 and 9 mCi, all readers): ≥ 1.00
